These results are taken from the nanobody polyreactivity screen of Harvey et al. (2022).

This series in a line: yeast display, Sf9 membrane polyspecificity reagent, FACS + sequencing; frameworks hold sequencing errors. The gist of the method: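 A nanobody's polyreactivity label depends on the gate it was sorted from. Yeast display cells were stained with 10% biotinylated, detergent-solubilized Sf9 membrane reagent for 1 hour at 4 °C, enriched on streptavidin microbeads and sorted by FACS. The low and high (top ~1%) gates were set on anti-HA fluorescence for expression and streptavidin fluorescence for reagent binding.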
For “EEELVESGGGLVQAGGSLLLSCAAYGRILPRNDMGWYRQAPGKERELVAVISSGGSTYYPDSVKGRFTISRDNAKNTVYLQINSVKPEDTAVYYCLGGYYYLQYDYWGQGTQVTVSS”, the “polyreactivity (PSR sort gate)” value was “low polyreactivity”.

Regarding “EEELVESGGGLVQAGGSLRLSCAASARISTVMLWDWYRQAPGKDRELVAAITKSGGSTYYADSVKGRFTISRDNAKNTVYLQMNSLIPEDTAVYYCAADRYAILFYAEDYWGQGTQETVSS”, the “polyreactivity (PSR sort gate)” value is “low polyreactivity”.

As for “EEELVESGGGLVQAGGSLRLSCAASGNIFEVNTMGWYRQAPGKERELVAAITSTGSTNYADSVKGRFTISRDNAKNTVYLQMNSLKPVDTAVYYSSATLEWYRYTYEYDYWGQGTQVTVSS”, the “polyreactivity (PSR sort gate)” value is “low polyreactivity”.

On to “EEELVESGGGLVQAGGSLRLSCAASGRTFVYNAMGWYRQAPGTERELVAAITSGDSTYYADSVKGRFTISRDNAKNTVYLQMNSLKPEDTAVYYCATDYSGIFYWYDYWGQGTQVTVSS”, for which the “polyreactivity (PSR sort gate)” value is recorded as “low polyreactivity”.

In the case of “EEELVESGGGLVQAGGSLRLSCAASGRTLAGYPMGWYRQAPGKERELVAAISSSGGSTYYADSVKGRFTISRDNAKNTVYLQMNSLKPEDTAVYYCNRYSSYIPYPYNYWGQGTQVTVSS”, the “polyreactivity (PSR sort gate)” value is reported as “high polyreactivity”.

“EEELVESGGGLVQAGGSLRLSCAASGSIFTHYAMGWYRPAPGKERELVAAISWSGGSTYYADSVKGRFTISRDNAKKTVYLQMNSLKPEDTAVYYCAAETYWGDDYWGQGTQVTVSS”: the “polyreactivity (PSR sort gate)” value is on record as “high polyreactivity”.

On to “EEELVESGGGLVQAGGSLRLSCAATGSIFVVNAMRWYRQAPGKERELVAAIARGGITNYADSVKGRFTISRDNAKNTVYLQMNSLKPEDTAVYYCNARGSRWVKPDRDYWGQGTQVTVSS”, for which the “polyreactivity (PSR sort gate)” value is listed as “low polyreactivity”.

With “EEELVESGGGLVQAGVSLRISCAASGSIFNYNAMGWYRQAPGKERELVAAISRGGTTNYADSVKGRFTISRDNANNTVYLQMNSLKPEDTAVYYCAAKAYDYYGPVYYWGQGSQVTVSS”, the “polyreactivity (PSR sort gate)” value was “high polyreactivity”.

With “EVQLVESGGGLFQAGGSLRLSCAASGFTFYRYAMGWYRQAPGKERELVAGITWGGGRTYYADSVKGRFTISRDNAKNTVYFQMNSLKPEATAVYYCAAYYSQDSRRKYDYWGQVTQVTVSS”, the “polyreactivity (PSR sort gate)” value is “high polyreactivity”.

As for “EVQLVESGGGLVQAGGSLRLSCAASGSIFSFYAMGWYRQAPGKERELVAAISRSAGRTYYADSVKGRFTISRDNATNTVYLQRNSLKPEDTAVYYCNKASWYNGEMDYWGQGTQVTVSS”, the “polyreactivity (PSR sort gate)” value is recorded as “high polyreactivity”.

As to “EVQLVESGGGLVQAGGSLRLSCAASGSIYGSYAKGWYRQAPGKERELVAGITYRGSSTYYADSVKGRFTISRDNAKYTVYLLMNSLKPEDTAVYYCAADPVFDEYDYWGQGTQVTVSS”, the “polyreactivity (PSR sort gate)” value was “low polyreactivity”.

For “EVQLVESGGGLVQPGGSLRLSCAASGYIYSRYRMGWYRQAPGKGREFVAAISGGSSTTYADSVKGRFTISRDNSKNTVYLQMNSLRAEDTAVYYCAAYKIDSDPRVYWGQGTQVTVSS”, the “polyreactivity (PSR sort gate)” value is on record as “low polyreactivity”.

With “EVQLVESRGGLVQAGGSLRLSCAASGSILVGYAMGWYRQAPGKERELVAAISFSGGSTYYADSVKGRFTISRDNAKNTVFLQLNSLKPEDTAVYYCASKRRVWIFYSSSDDYWGQGTQVTVSS”, the “polyreactivity (PSR sort gate)” value is recorded as “low polyreactivity”.

With “HAQLQESGGGLVQAGGSLRRSCAASGSIFRFSRMGWYRRAPGKERELVASIGFGSITYYADRVKGRFTISRDNANNTVYLQMNSLKPEDTAVYYCAVQVQDESWLDYWGQGTQVTVSC”, the “polyreactivity (PSR sort gate)” value is on record as “low polyreactivity”.

Consider “HAQLQESGVGLVQAGGSLRRSCAASGSIFRFSGMGWYRRAPGKERELVASIGFGSITYYADRVKGRFTISRDNANNTEYLQMNSLKPEDTAVYYCAVQVQDESWLDYWGQGTQVTVSC”, for which the “polyreactivity (PSR sort gate)” value was “low polyreactivity”.

“HDQLVESAAGLVQAGGSLRLSCAASVLTFYQNALGWYRQAAGKEMEFVAAISRRGGSTYYADSVKGRFTISRDNAKNTVYLQMNSLKPEDTAVYYCAADYKRKSDGDYWGQGTQVTVSS”: the “polyreactivity (PSR sort gate)” value was “high polyreactivity”.

Take “HDQLVESGGGFVQAGGSLRLSCAASGSIFRYNPMGWYRQAPGKEMELVAAISYGGGITRYADSVKGRFTISRDNAKNTVYLQMNSLKPEDTAVYYCNKAYVWRRMDYWGQGTQVTVSS”: the “polyreactivity (PSR sort gate)” value is listed as “high polyreactivity”.

Regarding “HDQLVESGGGLVEAGGSLRLSCAASGITFKGYAMGWYRPAPGKERELVAAITSGGSTKYADSVKGRFTSSRDNAKNTVYLQMNSLKPEDTAVYYCAAAVVNYGWWTYGYYGFGYWGQGTQVTVSS”, the “polyreactivity (PSR sort gate)” value is “high polyreactivity”.

In the case of “HFQLVEAGGGLVQAGGSLSLSCADSGRTYSHYAMGWYSQAPAQVRELVAGISSGSRTNYADSVKGRFTISRDNAKNTVYLQMNSLKPEDTAFYYCAARTNYLKGGYWGQGTQVTVSS”, the “polyreactivity (PSR sort gate)” value is “high polyreactivity”.

For the sequence “HGQLVDSGGGLVQAGGSLRLICAASGYTYYDYAMGRYREAPGKEMELVADISTSDGSTFYADSVKGRFTISRDNAKNTVYLQMNSLKPEDTAVYYCNTDGSLGLYDWFWPSNNDYWGQGTQVTVSS”, the “polyreactivity (PSR sort gate)” value was “low polyreactivity”.

Turning to “HLQLEESGVGLVQAGGSLRLSCAASGSTFTFNAMGWYRQAPAKSRELVAAIRWNGESTYYADSVKGRFSISRDNAKNTVYIQMNSLNPEDTAVYYCAATRLLSKSGDRYYYWGQGTQVTVSS”, the “polyreactivity (PSR sort gate)” value is “low polyreactivity”.

Turning to “HVHLQESGGGLVQAGGSLRLSCAASGSINDETYMAWYRQAPGKERELVATIDSGSTTNYADSVKGRITISRDNAKNTVYLQMNSLKPEDTAVYYCAAADSHIDYFDYWGQGSQVTVSS”, the “polyreactivity (PSR sort gate)” value is recorded as “low polyreactivity”.

In the case of “HVHLVESGGGLVQAGGRLRLTCAASGRTFQKYAMGWYREAPRKERELVAAITTSGGSTYYADSVKGRFTISRDYAKYTVYLQMNSLKPEDTAVYYCNKAYAYAGHDYDWGQGTKVTVSS”, the “polyreactivity (PSR sort gate)” value is listed as “high polyreactivity”.

As to “HVLLVESGGGLVQAGGSLLLSCAASGSPFYTNAMVGFRKAPGKEREVVASITDGGDSTQYADSVKGRFTISRDYAKNTVYLQMNSLKPEDTAVYYCAVDYHYFQEYDTWGQGTQVTVSS”, the “polyreactivity (PSR sort gate)” value was “low polyreactivity”.

With “HVQLEESGGGLVQAGGSLRLTCAASGSIFYAYAMGWYIPATGKERELVAVISNGGGSTYYADSVKGRFTISRDNSKNSVYLQMNSVKPEDTAVYFCAAVLAESVYYSDYDYWGQGTQVTVSS”, the “polyreactivity (PSR sort gate)” value is on record as “low polyreactivity”.

For the sequence “HVQLEESGRGLVQAGGSLRLSCAASGRTFTSNAIGWYRQAPGKERELVAVITSGGSTNYADSVKGRFTISRDNAMNTVYLQMNSLKPEDTAVYYCNARSGRGQAYGYWGQGTQVTVSS”, the “polyreactivity (PSR sort gate)” value is “high polyreactivity”.

“HVQLQESAGGLVQAGASLRLSCAPSGNISYSRNMGWYRQAPGKERELVAAIDRGAITYYADSVKGRFTISRDNEKNTVYLQIFSLKPEDTAVYYCAAVYHDRWDHRYWGQGTQVTVSS”: the “polyreactivity (PSR sort gate)” value was “high polyreactivity”.

Take “HVQLQESGGGLVQAGGSLRLICAASGNIVDDDIMGWYRQAPGKEREIVASITDGGSTNYADSLKGRFTISRDNAKNTVYQQMNILIREVTAVYYCAAIAYPDIPTYFVYDSDSFYWGQGTQETVSS”: the “polyreactivity (PSR sort gate)” value is recorded as “high polyreactivity”.

On to “HVQLQESGGGLVQAGGSLRLSCAASGNISYSRNMGWYRQAPGKERELVAAIDRGAITYYADSVKGRFTISRDNAKNTVYLQIYSLKPEDTAVYYCAAEYHDRWDHRYWGQGTQVTVSS”, for which the “polyreactivity (PSR sort gate)” value was “high polyreactivity”.

In the case of “HVQLQESGGGLVQAGGSMRLSCAESGSISELRPMGLYRKAPGKERELVAGISTGGSTNYADSVKGRFTISLDNAKNTVYLQMNSLKPEYTAVYFCAAASYCEGTYDYWGQGTQVTVRS”, the “polyreactivity (PSR sort gate)” value is recorded as “high polyreactivity”.

On to “HVQLQESGGGLVQPGGSLRLSCAASGNISFSRNMGWYRQAPGKERELVAAIDRGAITYYGDSVKGRFTISRDNAKNTVYLQIYSLKPEDTAVYYCAAEYHDGWDHRYWGQGTQVTVSS”, for which the “polyreactivity (PSR sort gate)” value is listed as “high polyreactivity”.

Take “HVQLVESGGGFVQAGGSLRLICAASVRNFDVYSMGWYRQAPGKERELVAAISRRGGSTYYADSVKGRFTISRDNAKNTVYLQMNRLKPEDTAVYYCAAQSRQAYMTYGYWGLGTQVTVSS”: the “polyreactivity (PSR sort gate)” value is given as “high polyreactivity”.

Consider “HVQLVESGGGIVQAGGILRLSCAASGRIFSVYTMGWYRKAPGQERELVAAISSGASTNYADSVKGRFTISRDNAKNTVYLQMNSLKPEDTAVYYCAKEYGIYTDTPYYYWGQGTQVTVSS”, for which the “polyreactivity (PSR sort gate)” value is listed as “low polyreactivity”.

Regarding “HVQLVESGGGLFQAGGSLRLCCAASGSISGLYAMGWYRQAPGKERELVAAITLRDGTTSYADSVKGRFTISRDNAKITVYLQMNSLKPEDTDVYYCAAVDRDSKCSVPTLDHWGQGTQVTVSS”, the “polyreactivity (PSR sort gate)” value is listed as “low polyreactivity”.

Consider “HVQLVESGGGLGQAGGSLRLSCAASGSIFYVNAIGWYRQAPGKERELVADITWSGGSTYYADSVKGRFTISRDHAQTTVYLQMNSLKPEDTAVYYCAAKVKHWYYPYYYWGQGTQVTVSS”, for which the “polyreactivity (PSR sort gate)” value is on record as “low polyreactivity”.

As to “HVQLVESGGGLVQAGGILRLSFAASGFIFCYYTMGWYRQATGKERELVAAINSGGSTNYADSVKGRFTISRDNAKNTVYLQMNSLKPEDTAVYYCAALVWYSGELFYYWGQGTQVTVSS”, the “polyreactivity (PSR sort gate)” value is reported as “low polyreactivity”.

In the case of “HVQLVESGGGLVQAGGRLRLSCAASGGTFWHYAMGWYRKAPGKERELFAAIRWRGVRTYYADSVKGRFTISRDNAKNTVYLQMNSLKPEDTAVYYCASTTWRSGRYNYWGQGTQVTVSS”, the “polyreactivity (PSR sort gate)” value was “high polyreactivity”.

For “HVQLVESGGGLVQAGGSLRISCAASGRTLEQYAMGWYRQAPGKERELVAAINKSGARTYYADSVKGRFTISRDNAKNTVYLQMNSLKPEDTAVYYCNTVGPCYLFDYWGQGTQVTVSS”, the “polyreactivity (PSR sort gate)” value is “high polyreactivity”.

Consider “HVQLVESGGGLVQAGGSLRLSCAASARIFVTYAMGWYREAPGKETELVAAISSRGGRTNYADSVKGRFTISRDNAQNTVYLQMNSLKPEYTAVYYFAARYWYIYNYDYWGQGTQVTVSS”, for which the “polyreactivity (PSR sort gate)” value was “high polyreactivity”.

On to “HVQLVESGGGLVQAGGSLRLSCAASGFTFPLYALGWYRPAPGKEREVVAAIRSSGGSTYYADSVKGRFTISRDKAKNTVNLQMNSLKPEDTAVSYCAKVRSTRRLDTYYYWGQGTQVTVSS”, for which the “polyreactivity (PSR sort gate)” value was “high polyreactivity”.

As to “HVQLVESGGGLVQAGGSLRLSCAASGFTFYVYAMGWYRQAPGTERELVAAISRGGSTYYADSVKGRFTISRDNAKNTVYLQMNSLKPEDTAVYYCNRVPSVSSSKVRYSNGFDYWGQGTQVTVSS”, the “polyreactivity (PSR sort gate)” value is recorded as “low polyreactivity”.
